US20220220215A1 (CRESCENDO BIOLOGICS, published 2022)

Tests used:
[1] = target: T1, human PD-1 expressed on CHO cells (human, UniProt Q15116 21-288); assay: FMAT/Mirrorball on CHO huPD1 cells
T1 construct: also called CHO huPD1; CHO human PD1 cells
Procedure: (§1) Binding of His-tagged molecules to CHO human CD137, CHO parent and CHO human PD1 cells was assessed using Fluorescence Microvolume Assay Technology (FMAT). All reagents were prepared in FMAT assay buffer (pH 7.4) containing PBS, 0.1% Bovine Serum Albumin, 0.05% Sodium Azide. […] Fluorescence emission was then measured on the TTP Mirrorball plate reader in the FL2 (502 nm-537 nm) and FL5 (677-800 nm) channels following excitation at 488 nm and 640 nm. Data was gated on FL5 perimeter and peak intensity and the FL2 median mean fluorescence intensity of the gated data used for determination of VH binding. Monovalent CD137 specific Humabody® VH, and trispecific molecules with a CD137 binding arm bound to CHO CD137 expressing cells. Trispecific Humabody® VH, with a PD1 binding arm bound to PD1 expressing cells.

[2] = target: T2, human CD137 expressed on CHO cells (human, UniProt Q07011 18-255); assay: FMAT/Mirrorball on CHO huCD137 cells
T2 construct: also called CHO huCD137; CHO human CD137 cells
Procedure: as §1

Row | Binder | EC50 [1] | EC50 [2]
1 | TPP-942: PDA-6GS-172E1-13-6GS-HSA2-2-His (bispecific antibody, Single-chain fusion of VH single domains (PD-1 VH, CD137 VH, HSA VH) joined by 6GS linkers, His tag) EVQLVESGGGLVQPGRSLRLSCAASGFTFDDYALHWVRQAPGKDLEWVSGISWNGGSYGYADSVKGRFTISRDNAKNSLYLQMNSLRAEDTALYYCVREKGPGLTGSTADYYGLDAWGQGTMVTVSSGGGGSGGGGSGGGGSGGGGSGGGGSGGGGSEVQLVESGGGVVQPGGSLRLSCAASGFTFSNYGMHWVRQAPGKGLEWVAVISNDGNTKTYADSVKGRFTISRDNSKNTLYLQMNSLRAEDTAVYYCAQDETTTVTASYYFDYWGQGTLVTVSSGGGGSGGGGSGGGGSGGGGSGGGGSGGGGSEVQLVESGGGLVKPGGSLRLSCAASGFTFSNYNMNWVRQAPGKGLEWVSSISSAGTHIYYADSVKGRFTISRDNAKNSLYLQMNSLRAEDTAVYYCARDPHSTGWYKDFDYWGQGTLVTVSSAAAHHHHHH | 0.164 nM | 0.157 nM
2 | TPP-943: PDA-6GS-172E1-13-6GS-HSA2-His (bispecific antibody, Single-chain VH fusion) EVQLVESGGGLVQPGRSLRLSCAASGFTFDDYALHWVRQAPGKDLEWVSGISWNGGSYGYADSVKGRFTISRDNAKNSLYLQMNSLRAEDTALYYCVREKGPGLTGSTADYYGLDAWGQGTMVTVSSGGGGSGGGGSGGGGSGGGGSGGGGSGGGGSEVQLVESGGGVVQPGGSLRLSCAASGFTFSNYGMHWVRQAPGKGLEWVAVISNDGNTKTYADSVKGRFTISRDNSKNTLYLQMNSLRAEDTAVYYCAQDETTTVTASYYFDYWGQGTLVTVSSGGGGSGGGGSGGGGSGGGGSGGGGSGGGGSEVQLLESGGGLVKPGGSLRLSCAASGFTVSSYTMNWVRQAPGKGLEWVSSISSSGRYIYYADSVKGRFTISRDNAKNSLYLQMNSLRAEDTAVYYCARDPRMVGNPHEFDIWGQGTMVTVSSAAAHHHHHH | 0.144 nM | 0.207 nM
3 | TPP-950: PDA2-6GS-172E1-13-6GS-HSA2-His (bispecific antibody, Single-chain VH fusion (PD-1 VH, CD137 VH, HSA VH), His tag) EVQLVESGGGVVRPGGSLRLSCAASGFTFDDYAMSWVRQAPGKGLEWVSGITWNAGSTGYADSVKGRFTISRDNAKNSLYLQMNSLRAEDTALYYCVRDKYSYAWSYDDFDIWGQGTMVTVSSGGGGSGGGGSGGGGSGGGGSGGGGSGGGGSEVQLVESGGGVVQPGGSLRLSCAASGFTFSNYGMHWVRQAPGKGLEWVAVISNDGNTKTYADSVKGRFTISRDNSKNTLYLQMNSLRAEDTAVYYCAQDETTTVTASYYFDYWGQGTLVTVSSGGGGSGGGGSGGGGSGGGGSGGGGSGGGGSEVQLVESGGGLVKPGGSLRLSCAASGFTFSNYNMNWVRQAPGKGLEWVSSISSAGTHIYYADSVKGRFTISRDNAKNSLYLQMNSLRAEDTAVYYCARDPHSTGWYKDFDYWGQGTLVTVSSAAAHHHHHH | 0.844 nM | 0.735 nM
4 | TPP-957; PD138G7(G109D)-6GS-172E1-13-6GS-HSA2-His (bispecific antibody, Single-chain VH fusion (PD-1 VH, CD137 VH, HSA VH), His tag) EVQLVESGGGVVRPGGSLRLSCAASGFTFDDYAMSWVRQAPGKGLEWVSGITWNGGSTGYADSVKDRFTISRDNAKNSLYLQMNSLRAEDTALYYCVRDKYSYAWSYDDFDIWGQGTMVTVSSGGGGSGGGGSGGGGSGGGGSGGGGSGGGGSEVQLVESGGGVVQPGGSLRLSCAASGFTFSNYGMHWVRQAPGKGLEWVAVISNDGNTKTYADSVKGRFTISRDNSKNTLYLQMNSLRAEDTAVYYCAQDETTTVTASYYFDYWGQGTLVTVSSGGGGSGGGGSGGGGSGGGGSGGGGSGGGGSEVQLVESGGGLVKPGGSLRLSCAASGFTFSNYNMNWVRQAPGKGLEWVSSISSAGTHIYYADSVKGRFTISRDNAKNSLYLQMNSLRAEDTAVYYCARDPHSTGWYKDFDYWGQGTLVTVSSAAAHHHHHH | 0.766 nM | 1.17 nM
5 | TPP-951: PDA2-6GS-172E1-13-6GS-HSA3-His (bispecific antibody, Single-chain VH fusion (PD-1 VH, CD137 VH, HSA VH), His tag) EVQLVESGGGVVRPGGSLRLSCAASGFTFDDYAMSWVRQAPGKGLEWVSGITWNAGSTGYADSVKGRFTISRDNAKNSLYLQMNSLRAEDTALYYCVRDKYSYAWSYDDFDIWGQGTMVTVSSGGGGSGGGGSGGGGSGGGGSGGGGSGGGGSEVQLVESGGGVVQPGGSLRLSCAASGFTFSNYGMHWVRQAPGKGLEWVAVISNDGNTKTYADSVKGRFTISRDNSKNTLYLQMNSLRAEDTAVYYCAQDETTTVTASYYFDYWGQGTLVTVSSGGGGSGGGGSGGGGSGGGGSGGGGSGGGGSEVQLLESGGGLVKPGGSLRLSCAASGFTVSSYTMNWVRQAPGKGLEWVSSISSSGRYIYYADSVKGRFTISRDNAKNSLYLQMNSLRAEDTAVYYCARDPRMVGNPHEFDIWGQGTMVTVSSAAAHHHHHH | 0.805 nM | 0.419 nM
6 | TPP-958: PD138G7(G109D)-6GS-172E1-13-6GS-HSA3-His (bispecific antibody, Single-chain VH fusion (PD-1 VH, CD137 VH, HSA VH), His tag) EVQLVESGGGVVRPGGSLRLSCAASGFTFDDYAMSWVRQAPGKGLEWVSGITWNGGSTGYADSVKDRFTISRDNAKNSLYLQMNSLRAEDTALYYCVRDKYSYAWSYDDFDIWGQGTMVTVSSGGGGSGGGGSGGGGSGGGGSGGGGSGGGGSEVQLVESGGGVVQPGGSLRLSCAASGFTFSNYGMHWVRQAPGKGLEWVAVISNDGNTKTYADSVKGRFTISRDNSKNTLYLQMNSLRAEDTAVYYCAQDETTTVTASYYFDYWGQGTLVTVSSGGGGSGGGGSGGGGSGGGGSGGGGSGGGGSEVQLLESGGGLVKPGGSLRLSCAASGFTVSSYTMNWVRQAPGKGLEWVSSISSSGRYIYYADSVKGRFTISRDNAKNSLYLQMNSLRAEDTAVYYCARDPRMVGNPHEFDIWGQGTMVTVSSAAAHHHHHH | 0.346 nM | 0.499 nM
7 | TPP-971: PDA2-6GS-HSA2-6GS-172E1-13-His (bispecific antibody, Single-chain VH fusion (PD-1 VH, HSA VH, CD137 VH), His tag) EVQLVESGGGVVRPGGSLRLSCAASGFTFDDYAMSWVRQAPGKGLEWVSGITWNAGSTGYADSVKGRFTISRDNAKNSLYLQMNSLRAEDTALYYCVRDKYSYAWSYDDFDIWGQGTMVTVSSGGGGSGGGGSGGGGSGGGGSGGGGSGGGGSEVQLVESGGGLVKPGGSLRLSCAASGFTFSNYNMNWVRQAPGKGLEWVSSISSAGTHIYYADSVKGRFTISRDNAKNSLYLQMNSLRAEDTAVYYCARDPHSTGWYKDFDYWGQGTLVTVSSGGGGSGGGGSGGGGSGGGGSGGGGSGGGGSEVQLVESGGGVVQPGGSLRLSCAASGFTFSNYGMHWVRQAPGKGLEWVAVISNDGNTKTYADSVKGRFTISRDNSKNTLYLQMNSLRAEDTAVYYCAQDETTTVTASYYFDYWGQGTLVTVSSAAAHHHHHH | 0.414 nM | 0.223 nM
8 | TPP-975: CD137D-6GS-PDA2-6GS-HSA2-His (bispecific antibody, Single-chain VH fusion (CD137 VH, PD-1 VH, HSA VH), His tag) EVQLVESGGGVVQPGGSLRLSCAASGFTFSNYGMHWVRQAPGKGLEWVAVISNDGNTKTYADSVKGRFTISRDNSKNTLYLQMNSLRAEDTAVYYCAQDETTTVTASYYFDYWGQGTLVTVSSGGGGSGGGGSGGGGSGGGGSGGGGSGGGGSEVQLVESGGGVVRPGGSLRLSCAASGFTFDDYAMSWVRQAPGKGLEWVSGITWNAGSTGYADSVKGRFTISRDNAKNSLYLQMNSLRAEDTALYYCVRDKYSYAWSYDDFDIWGQGTMVTVSSGGGGSGGGGSGGGGSGGGGSGGGGSGGGGSEVQLVESGGGLVKPGGSLRLSCAASGFTFSNYNMNWVRQAPGKGLEWVSSISSAGTHIYYADSVKGRFTISRDNAKNSLYLQMNSLRAEDTAVYYCARDPHSTGWYKDFDYWGQGTLVTVSSAAAHHHHHH | 0.792 nM | 0.39 nM
9 | TPP-982: CD137A -6GS-HSA2-6GS-PDA-His (bispecific antibody, Single-chain VH fusion (CD137 VH, HSA VH, PD-1 VH), His tag) EVQLVESGGGLVQPGGSLRLSCAASGFTLSNYWMNWVRQAPGKGLEWVANINQDGSERYYVDSVKGRFTISRDNAKNSLYLQMNSLRAEDTAVYYCARGGEGYGVDHYGLDVSGQGTTVTVSSGGGGSGGGGSGGGGSGGGGSGGGGSGGGGSEVQLVESGGGLVKPGGSLRLSCAASGFTFSNYNMNWVRQAPGKGLEWVSSISSAGTHIYYADSVKGRFTISRDNAKNSLYLQMNSLRAEDTAVYYCARDPHSTGWYKDFDYWGQGTLVTVSSGGGGSGGGGSGGGGSGGGGSGGGGSGGGGSEVQLVESGGGLVQPGRSLRLSCAASGFTFDDYALHWVRQAPGKDLEWVSGISWNGGSYGYADSVKGRFTISRDNAKNSLYLQMNSLRAEDTALYYCVREKGPGLTGSTADYYGLDAWGQGTMVTVSSAAAHHHHHH | 0.332 nM | 0.0896 nM
10 | TPP-983: CD137A -6GS-HSA2-6GS-PDA2-His (bispecific antibody, Single-chain VH fusion (CD137 VH, HSA VH, PD-1 VH), His tag) EVQLVESGGGLVQPGGSLRLSCAASGFTLSNYWMNWVRQAPGKGLEWVANINQDGSERYYVDSVKGRFTISRDNAKNSLYLQMNSLRAEDTAVYYCARGGEGYGVDHYGLDVSGQGTTVTVSSGGGGSGGGGSGGGGSGGGGSGGGGSGGGGSEVQLVESGGGLVKPGGSLRLSCAASGFTFSNYNMNWVRQAPGKGLEWVSSISSAGTHIYYADSVKGRFTISRDNAKNSLYLQMNSLRAEDTAVYYCARDPHSTGWYKDFDYWGQGTLVTVSSGGGGSGGGGSGGGGSGGGGSGGGGSGGGGSEVQLVESGGGVVRPGGSLRLSCAASGFTFDDYAMSWVRQAPGKGLEWVSGITWNAGSTGYADSVKGRFTISRDNAKNSLYLQMNSLRAEDTALYYCVRDKYSYAWSYDDFDIWGQGTMVTVSSAAAHHHHHH | 0.24 nM | 0.0443 nM
11 | TPP-1025: CD137A -6GS-HSA3-2-6GS-PDA2-His (bispecific antibody, Single-chain VH fusion (CD137 VH, HSA VH, PD-1 VH), His tag) EVQLVESGGGLVQPGGSLRLSCAASGFTLSNYWMNWVRQAPGKGLEWVANINQDGSERYYVDSVKGRFTISRDNAKNSLYLQMNSLRAEDTAVYYCARGGEGYGVDHYGLDVSGQGTTVTVSSGGGGSGGGGSGGGGSGGGGSGGGGSGGGGSEVQLLESGGGLVKPGGSLRLSCAASGFTVSSYTMNWVRQAPGKGLEWVSSISSSGRYIYYADSVKGRFTISRDNAKNSLYLQMNSLRAEDTAVYYCARDPRMVGNPHEFDIWGQGTMVTVSSGGGGSGGGGSGGGGSGGGGSGGGGSGGGGSEVQLVESGGGVVRPGGSLRLSCAASGFTFDDYAMSWVRQAPGKGLEWVSGITWNAGSTGYADSVKGRFTISRDNAKNSLYLQMNSLRAEDTALYYCVRDKYSYAWSYDDFDIWGQGTMVTVSSAAAHHHHHH | 1.23 nM | 
